# Patent publication US20030068788A1
# T1: P450Ema2 monooxygenase from Streptomyces tubercidicus strain I-1529 (Streptomyces tubercidicus strain I-1529)
# T1 sequence: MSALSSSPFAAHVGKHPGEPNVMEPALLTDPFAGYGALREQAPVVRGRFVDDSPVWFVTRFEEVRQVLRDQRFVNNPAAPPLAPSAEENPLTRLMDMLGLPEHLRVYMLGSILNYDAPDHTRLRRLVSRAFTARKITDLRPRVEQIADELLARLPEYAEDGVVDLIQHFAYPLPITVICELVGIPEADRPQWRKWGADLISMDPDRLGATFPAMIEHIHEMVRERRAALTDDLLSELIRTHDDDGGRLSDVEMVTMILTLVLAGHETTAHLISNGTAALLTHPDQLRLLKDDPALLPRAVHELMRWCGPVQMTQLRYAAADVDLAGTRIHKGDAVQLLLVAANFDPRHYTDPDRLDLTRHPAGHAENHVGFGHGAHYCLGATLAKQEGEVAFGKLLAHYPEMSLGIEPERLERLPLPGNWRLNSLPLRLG
# T2: P450Ema1A, N-terminally truncated P450Ema1 encoded by ema1A (Streptomyces tubercidicus strain R-922)
# T2 sequence: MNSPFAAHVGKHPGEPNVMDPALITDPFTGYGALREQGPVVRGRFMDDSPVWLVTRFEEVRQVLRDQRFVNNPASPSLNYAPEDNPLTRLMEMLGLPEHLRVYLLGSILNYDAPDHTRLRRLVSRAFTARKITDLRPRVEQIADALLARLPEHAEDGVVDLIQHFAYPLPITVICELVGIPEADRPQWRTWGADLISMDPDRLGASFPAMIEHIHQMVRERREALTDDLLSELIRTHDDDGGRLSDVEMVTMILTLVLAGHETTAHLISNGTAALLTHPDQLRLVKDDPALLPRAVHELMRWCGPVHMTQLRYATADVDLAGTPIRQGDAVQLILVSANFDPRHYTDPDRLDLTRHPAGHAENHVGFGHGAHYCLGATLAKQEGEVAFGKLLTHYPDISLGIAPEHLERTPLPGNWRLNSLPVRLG
# T3: P450Ema1 monooxygenase from Streptomyces tubercidicus strain R-922 (Streptomyces tubercidicus strain R-922)
# T3 sequence: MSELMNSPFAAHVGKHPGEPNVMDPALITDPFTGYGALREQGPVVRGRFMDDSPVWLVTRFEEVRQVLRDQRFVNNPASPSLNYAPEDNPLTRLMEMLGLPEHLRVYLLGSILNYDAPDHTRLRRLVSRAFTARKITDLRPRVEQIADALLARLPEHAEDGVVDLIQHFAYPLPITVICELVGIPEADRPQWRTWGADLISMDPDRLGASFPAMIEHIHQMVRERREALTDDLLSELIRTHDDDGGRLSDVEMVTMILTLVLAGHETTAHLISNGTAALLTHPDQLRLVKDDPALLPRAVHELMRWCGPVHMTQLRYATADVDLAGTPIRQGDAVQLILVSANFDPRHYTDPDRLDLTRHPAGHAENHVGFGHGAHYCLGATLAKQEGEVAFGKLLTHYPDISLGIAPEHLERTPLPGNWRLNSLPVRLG
# T4: ferredoxin encoded by fd233 from strain I-1529
# T4 chain: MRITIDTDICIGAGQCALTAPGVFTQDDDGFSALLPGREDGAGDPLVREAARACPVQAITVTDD
# T5: ferredoxin encoded by fd233 from strain I-1529 (Streptomyces tubercidicus strain I-1529)
# T5 sequence: T4 chain
# B1: ferredoxin encoded by fd233 from strain I-1529 (protein)
# chain: T4 chain
# B2: ferredoxin reductase encoded by fre12 (protein)
# chain: MPAARRRLRPPHRSGDLPARPPGRAHPPRDRPGRHDLRPSRRGGGHRRMKSVAVIGASLAGLYAARSLRSQGFDGRLVIVGDECHGPYDRPPLSKDFLTGATDPGRLALADAEEIAELDAEWLLGTRATGLDTGGRTVLLDGGRSLTTDGVVLATGAAPRLLPGPVPAGVHTLRTLDDAQALRADLAPAPVRVVVIGGGFIGAEVASSCAALGHDVTVVEAAPLPLVPQLGHAMAEICAALHADHGVTLLTGTGVARLRSEGDGRRVTGVELTDGRLLPADVVVVGIGVRPRTAWLTDSGLPLDDGVLCDAGCVTPLPAVVAVGDVARVDGARAEHWTSATEQAAVAARNLLAGSTVATHRSLPYFWSDQYGVRIQFAGHRLPTDTPRVLEGSPDDRSFLACYERDGRTTAVLALNRPRPFMRLRRELARTALSATT
# B3: ferredoxin reductase encoded by fre14 (protein)
# chain: MAQNTAFIIAGAGLAGAKAAETLRAEGFGGPVLLLGDERERPYERPPLSKGYLLGTSEREKAYVHPPQWYAEHDVDLRLGNAVTALDPAGHEVTLADGSRLGYAKLLLATGSTPRRLPVPGADLDGVHTLRYLADSDRLKDLFRSASRIVVIGGGWIGLETTAAARAAGVEVTVLESAPLPLLGVLGREVAQVFADLHTEHGVALRCDTQVTEITGTNGAVDGVRLADGTRIAADAVIVGVGITPNSETAAAAGLKVDNGVVVDERLCSSHPDIYAAGDVANAYHPLLGKHLRVEHWANALHQPKTAARAMLGGEAGYDRLPYFFTDQYDLGMEYTGHVEPGGYDRVVFRGDTGAREFIAFWLSGGRVLAGMNVNVWDVTDPIRALVASGRAVDPERLADADVPLADLVP
# B4: ferredoxin reductase encoded by fre3 (protein)
# chain: VVDAHQTFVIVGGGLAGAKAAETLRAEGFTGRVILICDERDHPYERPPLSKGFLLGKEERDSVFVHEPAWYAQAQIELHLGQPAVRLDPEGRTVRLGDGTLIAYDKLLLATGAEPRRLDIPGTGLAGVHHLRRLAHAERLRGVLASLGRDNGHLVIAGAGWIGLEVAAAARSYGAEVTVVEAAPTPLHGILGPELGGLFTDLHREHGVRFHFGARFTEIVGEGGMVLAVRTDDGEEHPAHDVLAAIGAAPRTALAEQAGLDLADPETGGGVAVDAALRTSDPYIYAAGDVAAADHPLLDTRLRVEHWANALNGGPAAARAMLGQDISYDRIPYFFSDQYDVGMEYSGYAPPGSYAQVVCRGDVAKREFIAFWLAADGRLLAGMNVNVWDVAESIQQLIRSGAPLEPGALADPQVPLAALLP
# B5: ferredoxin reductase encoded by fre16 from strain I-1529 (enzyme)
# chain: VVDAHQTFVIVGGGLAGAKAAETLRAEGFTGRVILICDERDHPYERPPLSKGFLLGKEERDSVFVHEPAWYAQAQIELHLGQPAVRLDPEAKTVRLGDGTLIAYDKLLLATGAEPRRLDIPGTGLAGVHHLRRLAHAERLRGVLASLGRDNGHLVIAGAGWIGLEVAAAARSYGAEVTVVEAAPTPLHGILGPELGGLFTELHRAHGVRFHFGARFTEIVGQDGMVLAVRTDDGEEHPAHDVLAAIGAAPRTALAEQAGLDLADPEAGGGVAVDATLRTSDPYIYAAGDVAAADHPLLDTRLRVEHWANALNGGPAAARAMLGQDISYDRVPYFFSDQYDVGMEYSGYAPPGSYAQVVCRGDVAKREFIAFWLGEDGRLLAGMNVNVWDVAETIQQLIRGGVRLEPGELADPEVPLTSLLP
# What was measured:
# [1] = target: T1, P450Ema2 monooxygenase from Streptomyces tubercidicus strain I-1529 (Streptomyces tubercidicus strain I-1529); assay: cell-based or functional assay
# [2] = target: T2, P450Ema1A, N-terminally truncated P450Ema1 encoded by ema1A (Streptomyces tubercidicus strain R-922); assay: cell-based or functional assay
# [3] = target: T3, P450Ema1 monooxygenase from Streptomyces tubercidicus strain R-922 (Streptomyces tubercidicus strain R-922); assay: cell-based or functional assay
# [4] = target: T4, ferredoxin encoded by fd233 from strain …
# [5] = target: T5, ferredoxin encoded by fd233 from strain I-1529 (Streptomyces tubercidicus strain I-1529); assay: cell-based or functional assay
binder,measurement,setting,value
B1,"% Conversion of Avermectin, 2 hour (S. lividans ZX7 + pTUA-ema2/fd233, whole cells)",[1],1.85 % conversion
same,"% Conversion of Avermectin, 16 hour (S. lividans ZX7 + pTUA-ema2/fd233, whole cells)",[1],6.4 % conversion
same,"% Conversion of avermectin, 16 hrs (S. avermitilis MOS-0001 + pTBBKA-ema1A/fd233, whole cells)",[2],28.5 % conversion
same,"% Conversion of avermectin, 16 hrs (S. avermitilis MOS-0001 + pTUA-ema1A/fd233, whole cells)",[2],24 % conversion
same,"% Conversion of Avermectin, 2 hour (S. lividans ZX7 + pEAA-ema1/fd233, whole cells)",[3],8.26 % conversion
same,"% Conversion of Avermectin, 2 hour (S. lividans ZX7 + pTBBKA-ema1/fd233, whole cells)",[3],8.89 % conversion
same,"% Conversion of Avermectin, 2 hour (S. lividans ZX7 + pTUA-ema1/fd233, whole cells)",[3],23.3 % conversion
same,"% Conversion of Avermectin, 16 hour (Pseudomonas putida + pRK-ema1/fd233, whole cells)",[3],32 % conversion
same,"% Conversion of Avermectin, 16 hour (S. lividans ZX7 + pEAA-ema1/fd233, whole cells)",[3],10.7 % conversion
same,"% Conversion of Avermectin, 16 hour (S. lividans ZX7 + pTBBKA-ema1/fd233, whole cells)",[3],31 % conversion
same,"% Conversion of Avermectin, 16 hour (S. lividans ZX7 + pTUA-ema1/fd233, whole cells)",[3],61.2 % conversion
same,biocatalysis activity of pTUA-ema1/fd233 in S. lividans relative to pTUA-ema1 (fold),[3],1.5 to 3 fold
B2,"biocatalysis activity, S. lividans ZX7 with ema1/fd233/fre operons in pTUA, pTBBKA and pEAA",[4],In each case there was no impact in S. lividans by any of the fre genes on biocatalysis activity
B3,"biocatalysis activity, S. lividans ZX7 with ema1/fd233/fre operons in pTUA, pTBBKA and pEAA",[4],In each case there was no impact in S. lividans by any of the fre genes on biocatalysis activity
B4,"biocatalysis activity, S. lividans ZX7 with ema1/fd233/fre operons in pTUA, pTBBKA and pEAA",[4],In each case there was no impact in S. lividans by any of the fre genes on biocatalysis activity
B5,"conversion of avermectin to 4″-keto-avermectin, P. putida ATCC 17453 with the ema1/fd233/fre16 operon (whole cell assay; 23% without fre16)",[5],44 % conversion
same,"biocatalysis activity, S. lividans ZX7 with ema1/fd233/fre operons in pTUA, pTBBKA and pEAA",[4],In each case there was no impact in S. lividans by any of the fre genes on biocatalysis activity
